Measured values from publication PMC12203670.
Where “and” joins values, the source holds several entries; their conditions need not be identical. Equal entries are not always repeated.

Target: PKM2 (pyruvate kinase M2), endogenous in mouse heart (mouse (endogenous in heart)) (UniProt P52480)
Assay: cross-linking; cross-linking of cardiac PKM2, Western blot of monomer, dimer and tetramer; hearts of Ctrl and cKO mice after 3-h reperfusion, with TEPP-46 or vehicle, or with Ad-Mtx2

Chain of PKM2 (pyruvate kinase M2), endogenous in mouse heart, P52480 1-531 (enzyme; other documents disagree on this pair) (P52480 whole entry): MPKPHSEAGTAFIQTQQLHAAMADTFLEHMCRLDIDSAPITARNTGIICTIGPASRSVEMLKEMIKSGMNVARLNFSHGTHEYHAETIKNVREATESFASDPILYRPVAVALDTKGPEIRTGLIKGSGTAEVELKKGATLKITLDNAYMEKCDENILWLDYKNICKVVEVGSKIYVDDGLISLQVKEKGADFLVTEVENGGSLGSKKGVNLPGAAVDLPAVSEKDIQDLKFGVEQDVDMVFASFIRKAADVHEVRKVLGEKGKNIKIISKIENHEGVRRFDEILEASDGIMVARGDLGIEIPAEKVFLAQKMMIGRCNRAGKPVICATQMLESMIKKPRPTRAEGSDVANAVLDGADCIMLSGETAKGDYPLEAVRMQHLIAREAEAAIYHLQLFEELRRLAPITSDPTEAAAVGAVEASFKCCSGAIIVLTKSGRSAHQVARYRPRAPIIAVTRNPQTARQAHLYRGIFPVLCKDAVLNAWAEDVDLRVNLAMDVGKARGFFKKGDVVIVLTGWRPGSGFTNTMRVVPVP

For “PKM2 (pyruvate kinase M2), endogenous in mouse heart, P52480 1-531 (enzyme; other documents disagree on this pair)”, the stoichiometry N was 4 and 2.
